Target: AHNAK1, Q09666
Experiment: holdup assay
Set-up: key: below the threshold = too weak to quantify, mostly under pKd 3.1 to 4
Conditions: plain residues with an end cap or a label only (N-terminal biotin on a linker: ado-ado)

Chain of AHNAK1, Q09666 (Q09666 4-100): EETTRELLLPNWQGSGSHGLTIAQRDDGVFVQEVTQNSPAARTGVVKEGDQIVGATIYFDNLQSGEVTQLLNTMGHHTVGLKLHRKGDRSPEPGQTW

Binder	pKd
VNKSKLLTDV [KCNA1, Q09470]	below the threshold
TPPAAKKSRI [BAZ1A, Q9NRL2]	below the threshold

Target: T1, APBA1_2, Q02410
T1 sequence (Q02410 742-832, limits assumed, looked up): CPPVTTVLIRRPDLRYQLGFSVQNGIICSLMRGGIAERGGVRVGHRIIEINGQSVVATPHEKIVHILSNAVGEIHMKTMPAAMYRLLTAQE
Experiment: holdup assay
Set-up: key: below the threshold = too weak to quantify, mostly under pKd 3.1 to 4
Conditions: plain residues with an end cap or a label only (N-terminal biotin on a linker: ado-ado)

Binder	pKd
VNKSKLLTDV [KCNA1, Q09470]	3.56
TPPAAKKSRI [BAZ1A, Q9NRL2]	below the threshold

Target: T2, CARD11, Q9BXL7
T2 sequence (Q9BXL7 662-765, limits assumed, looked up): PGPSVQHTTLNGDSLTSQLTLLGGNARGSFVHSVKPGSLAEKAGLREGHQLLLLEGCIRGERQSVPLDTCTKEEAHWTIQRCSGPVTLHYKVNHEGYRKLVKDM
Experiment: holdup assay
Set-up: key: below the threshold = too weak to quantify, mostly under pKd 3.1 to 4
Conditions: plain residues with an end cap or a label only (N-terminal biotin on a linker: ado-ado)

Binder	pKd
VNKSKLLTDV [KCNA1, Q09470]	below the threshold
TPPAAKKSRI [BAZ1A, Q9NRL2]	below the threshold

Target: T3, DFNB31_3, Q9P202
T3 sequence (Q9P202 811-907, limits assumed, looked up): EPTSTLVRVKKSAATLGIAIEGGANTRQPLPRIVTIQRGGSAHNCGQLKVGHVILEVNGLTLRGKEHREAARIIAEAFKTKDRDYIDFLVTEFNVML
Experiment: holdup assay
Set-up: key: below the threshold = too weak to quantify, mostly under pKd 3.1 to 4
Conditions: plain residues with an end cap or a label only (N-terminal biotin on a linker: ado-ado)

Binder	pKd
VNKSKLLTDV [KCNA1, Q09470]	3.56
TPPAAKKSRI [BAZ1A, Q9NRL2]	4.08

Target: DLG1_3, Q12959
Sequence (Q12959 457-571): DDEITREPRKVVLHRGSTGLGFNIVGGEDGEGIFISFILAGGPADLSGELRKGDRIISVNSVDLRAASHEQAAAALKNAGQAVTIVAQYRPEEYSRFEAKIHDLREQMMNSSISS
Experiment: holdup assay
Set-up: key: below the threshold = too weak to quantify, mostly under pKd 3.1 to 4
Conditions: plain residues with an end cap or a label only (N-terminal biotin on a linker: ado-ado)

Binder	pKd
VNKSKLLTDV [KCNA1, Q09470]	below the threshold
TPPAAKKSRI [BAZ1A, Q9NRL2]	3.81

Target: DLG4_3, P78352
Sequence (P78352 306-403): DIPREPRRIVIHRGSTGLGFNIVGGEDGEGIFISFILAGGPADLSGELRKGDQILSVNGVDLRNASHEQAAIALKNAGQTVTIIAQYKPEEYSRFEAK
Experiment: holdup assay
Set-up: key: below the threshold = too weak to quantify, mostly under pKd 3.1 to 4
Conditions: plain residues with an end cap or a label only (N-terminal biotin on a linker: ado-ado)

Binder	pKd
VNKSKLLTDV [KCNA1, Q09470]	3.53
TPPAAKKSRI [BAZ1A, Q9NRL2]	below the threshold

Target: FRMPD3, Q5JV73
Sequence (Q5JV73 12-100): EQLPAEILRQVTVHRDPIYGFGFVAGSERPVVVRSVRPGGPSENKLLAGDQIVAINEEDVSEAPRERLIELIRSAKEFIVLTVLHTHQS
Experiment: holdup assay
Set-up: key: below the threshold = too weak to quantify, mostly under pKd 3.1 to 4
Conditions: plain residues with an end cap or a label only (N-terminal biotin on a linker: ado-ado)

Binder	pKd
VNKSKLLTDV [KCNA1, Q09470]	below the threshold
TPPAAKKSRI [BAZ1A, Q9NRL2]	below the threshold

Target: GORASP2, Q9H8Y8
Experiment: holdup assay
Set-up: key: below the threshold = too weak to quantify, mostly under pKd 3.1 to 4
Conditions: plain residues with an end cap or a label only (N-terminal biotin on a linker: ado-ado)

Binder	pKd
VNKSKLLTDV [KCNA1, Q09470]	3.91
TPPAAKKSRI [BAZ1A, Q9NRL2]	below the threshold

Target: GRID2IP_1, A4D2P6
Sequence (A4D2P6 1-87): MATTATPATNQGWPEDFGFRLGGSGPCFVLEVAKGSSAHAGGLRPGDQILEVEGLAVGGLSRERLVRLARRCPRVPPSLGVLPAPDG
Experiment: holdup assay
Set-up: key: below the threshold = too weak to quantify, mostly under pKd 3.1 to 4
Conditions: plain residues with an end cap or a label only (N-terminal biotin on a linker: ado-ado)

Binder	pKd
VNKSKLLTDV [KCNA1, Q09470]	below the threshold
TPPAAKKSRI [BAZ1A, Q9NRL2]	below the threshold

Target: T4, GRIP1_2, Q9Y3R0
T4 sequence (Q9Y3R0 145-248, limits assumed, looked up): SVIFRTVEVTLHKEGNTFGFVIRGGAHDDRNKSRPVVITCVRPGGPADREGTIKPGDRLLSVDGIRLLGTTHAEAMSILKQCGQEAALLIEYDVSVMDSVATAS
Experiment: holdup assay
Set-up: key: below the threshold = too weak to quantify, mostly under pKd 3.1 to 4
Conditions: plain residues with an end cap or a label only (N-terminal biotin on a linker: ado-ado)

Binder	pKd
VNKSKLLTDV [KCNA1, Q09470]	below the threshold
TPPAAKKSRI [BAZ1A, Q9NRL2]	below the threshold

Target: T5, GRIP1_3, Q9Y3R0
T5 sequence (Q9Y3R0 247-346, limits assumed, looked up): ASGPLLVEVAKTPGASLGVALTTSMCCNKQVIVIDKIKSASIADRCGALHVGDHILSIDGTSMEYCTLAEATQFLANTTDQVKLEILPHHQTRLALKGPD
Experiment: holdup assay
Set-up: key: below the threshold = too weak to quantify, mostly under pKd 3.1 to 4
Conditions: plain residues with an end cap or a label only (N-terminal biotin on a linker: ado-ado)

Binder	pKd
VNKSKLLTDV [KCNA1, Q09470]	below the threshold
TPPAAKKSRI [BAZ1A, Q9NRL2]	below the threshold

Target: T6, GRIP1_5, Q9Y3R0
T6 sequence (Q9Y3R0 568-668, limits assumed, looked up): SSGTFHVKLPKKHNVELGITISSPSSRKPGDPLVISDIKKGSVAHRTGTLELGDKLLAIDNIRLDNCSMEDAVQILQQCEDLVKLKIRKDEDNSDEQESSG
Experiment: holdup assay
Set-up: key: below the threshold = too weak to quantify, mostly under pKd 3.1 to 4
Conditions: plain residues with an end cap or a label only (N-terminal biotin on a linker: ado-ado)

Binder	pKd
VNKSKLLTDV [KCNA1, Q09470]	below the threshold
TPPAAKKSRI [BAZ1A, Q9NRL2]	below the threshold

Target: GRIP2_3, Q9C0E4
Sequence (Q9C0E4 238-339): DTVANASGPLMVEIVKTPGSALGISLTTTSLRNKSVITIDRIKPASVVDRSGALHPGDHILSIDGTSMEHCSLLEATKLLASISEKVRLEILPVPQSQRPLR
Experiment: holdup assay
Set-up: key: below the threshold = too weak to quantify, mostly under pKd 3.1 to 4
Conditions: plain residues with an end cap or a label only (N-terminal biotin on a linker: ado-ado)

Binder	pKd
VNKSKLLTDV [KCNA1, Q09470]	below the threshold
TPPAAKKSRI [BAZ1A, Q9NRL2]	below the threshold

Target: GRIP2_7, Q9C0E4
Sequence (Q9C0E4 934-1023): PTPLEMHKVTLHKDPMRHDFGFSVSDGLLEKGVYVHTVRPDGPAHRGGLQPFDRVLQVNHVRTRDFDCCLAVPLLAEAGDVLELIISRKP
Experiment: holdup assay
Set-up: key: below the threshold = too weak to quantify, mostly under pKd 3.1 to 4
Conditions: plain residues with an end cap or a label only (N-terminal biotin on a linker: ado-ado)

Binder	pKd
VNKSKLLTDV [KCNA1, Q09470]	below the threshold
TPPAAKKSRI [BAZ1A, Q9NRL2]	below the threshold

Target: HTRA2, O43464
Sequence (O43464 355-458): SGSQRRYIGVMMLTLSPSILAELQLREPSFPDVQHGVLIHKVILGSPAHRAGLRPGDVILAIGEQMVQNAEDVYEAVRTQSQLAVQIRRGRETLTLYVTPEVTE
Experiment: holdup assay
Set-up: key: below the threshold = too weak to quantify, mostly under pKd 3.1 to 4
Conditions: plain residues with an end cap or a label only (N-terminal biotin on a linker: ado-ado)

Binder	pKd
VNKSKLLTDV [KCNA1, Q09470]	below the threshold
TPPAAKKSRI [BAZ1A, Q9NRL2]	below the threshold

Target: LAP2, Q96RT1
Sequence (Q96RT1 other isoform, or with tags, fused parts or gaps): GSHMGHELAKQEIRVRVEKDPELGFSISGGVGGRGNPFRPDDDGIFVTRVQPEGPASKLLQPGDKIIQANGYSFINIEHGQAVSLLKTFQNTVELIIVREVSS
Experiment: holdup assay
Set-up: key: below the threshold = too weak to quantify, mostly under pKd 3.1 to 4
Conditions: plain residues with an end cap or a label only (N-terminal biotin on a linker: ado-ado)

Binder	pKd
VNKSKLLTDV [KCNA1, Q09470]	below the threshold
TPPAAKKSRI [BAZ1A, Q9NRL2]	below the threshold

Target: T7, LIN7C, Q9NUP9
T7 sequence (Q9NUP9 88-185, limits assumed, looked up): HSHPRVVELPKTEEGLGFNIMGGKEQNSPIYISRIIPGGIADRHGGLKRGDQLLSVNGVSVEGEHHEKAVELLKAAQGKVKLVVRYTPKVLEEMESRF
Experiment: holdup assay
Set-up: key: below the threshold = too weak to quantify, mostly under pKd 3.1 to 4
Conditions: plain residues with an end cap or a label only (N-terminal biotin on a linker: ado-ado)

Binder	pKd
VNKSKLLTDV [KCNA1, Q09470]	below the threshold
TPPAAKKSRI [BAZ1A, Q9NRL2]	below the threshold

Target: MAGI2_2, Q86UL8
Sequence (Q86UL8 410-522): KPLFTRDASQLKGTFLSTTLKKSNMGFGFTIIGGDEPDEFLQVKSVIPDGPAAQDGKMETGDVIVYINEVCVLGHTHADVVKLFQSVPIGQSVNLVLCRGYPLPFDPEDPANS
Experiment: holdup assay
Set-up: key: below the threshold = too weak to quantify, mostly under pKd 3.1 to 4
Conditions: plain residues with an end cap or a label only (N-terminal biotin on a linker: ado-ado)

Binder	pKd
VNKSKLLTDV [KCNA1, Q09470]	4.06
TPPAAKKSRI [BAZ1A, Q9NRL2]	below the threshold

Target: MAGI2_4, Q86UL8
Sequence (Q86UL8 772-865): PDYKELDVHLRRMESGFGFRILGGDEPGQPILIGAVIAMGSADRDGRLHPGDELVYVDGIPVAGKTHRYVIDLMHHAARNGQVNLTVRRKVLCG
Experiment: holdup assay
Set-up: key: below the threshold = too weak to quantify, mostly under pKd 3.1 to 4
Conditions: plain residues with an end cap or a label only (N-terminal biotin on a linker: ado-ado)

Binder	pKd
VNKSKLLTDV [KCNA1, Q09470]	3.79
TPPAAKKSRI [BAZ1A, Q9NRL2]	3.71

Target: T8, MPP7, Q5T2T1
T8 sequence (Q5T2T1 134-230, limits assumed, looked up): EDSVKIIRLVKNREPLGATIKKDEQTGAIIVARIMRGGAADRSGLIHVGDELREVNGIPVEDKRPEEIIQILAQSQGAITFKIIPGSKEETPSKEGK
Experiment: holdup assay
Set-up: key: below the threshold = too weak to quantify, mostly under pKd 3.1 to 4
Conditions: plain residues with an end cap or a label only (N-terminal biotin on a linker: ado-ado)

Binder	pKd
VNKSKLLTDV [KCNA1, Q09470]	below the threshold
TPPAAKKSRI [BAZ1A, Q9NRL2]	below the threshold

Target: PDZRN4_1, Q6ZMN7
Sequence (Q6ZMN7 213-318): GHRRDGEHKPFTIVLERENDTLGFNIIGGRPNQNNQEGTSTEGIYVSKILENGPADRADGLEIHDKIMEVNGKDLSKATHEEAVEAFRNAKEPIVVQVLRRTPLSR
Experiment: holdup assay
Set-up: key: below the threshold = too weak to quantify, mostly under pKd 3.1 to 4
Conditions: plain residues with an end cap or a label only (N-terminal biotin on a linker: ado-ado)

Binder	pKd
VNKSKLLTDV [KCNA1, Q09470]	below the threshold
TPPAAKKSRI [BAZ1A, Q9NRL2]	below the threshold

Target: SCRIB_1, Q14160
Sequence (Q14160 718-814): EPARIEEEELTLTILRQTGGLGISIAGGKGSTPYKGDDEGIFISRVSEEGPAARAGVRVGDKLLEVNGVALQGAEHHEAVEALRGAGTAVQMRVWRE
Experiment: holdup assay
Set-up: key: below the threshold = too weak to quantify, mostly under pKd 3.1 to 4
Conditions: plain residues with an end cap or a label only (N-terminal biotin on a linker: ado-ado)

Binder	pKd
VNKSKLLTDV [KCNA1, Q09470]	3.87
TPPAAKKSRI [BAZ1A, Q9NRL2]	below the threshold

Target: SCRIB_2, Q14160
Sequence (Q14160 857-960): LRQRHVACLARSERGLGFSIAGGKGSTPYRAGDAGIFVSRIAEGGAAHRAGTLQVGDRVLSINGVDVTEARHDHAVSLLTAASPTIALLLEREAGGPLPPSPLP
Experiment: holdup assay
Set-up: key: below the threshold = too weak to quantify, mostly under pKd 3.1 to 4
Conditions: plain residues with an end cap or a label only (N-terminal biotin on a linker: ado-ado)

Binder	pKd
VNKSKLLTDV [KCNA1, Q09470]	below the threshold
TPPAAKKSRI [BAZ1A, Q9NRL2]	below the threshold

Target: SNX27, Q96L92
Experiment: holdup assay
Set-up: key: below the threshold = too weak to quantify, mostly under pKd 3.1 to 4
Conditions: plain residues with an end cap or a label only (N-terminal biotin on a linker: ado-ado)

Binder	pKd
VNKSKLLTDV [KCNA1, Q09470]	below the threshold
TPPAAKKSRI [BAZ1A, Q9NRL2]	below the threshold

Target: T9, SYNJ2BP, P57105
T9 sequence (P57105 8-110, limits assumed, looked up): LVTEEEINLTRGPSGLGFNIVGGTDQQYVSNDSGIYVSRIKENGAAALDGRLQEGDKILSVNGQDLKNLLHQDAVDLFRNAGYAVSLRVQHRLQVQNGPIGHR
Experiment: holdup assay
Set-up: key: below the threshold = too weak to quantify, mostly under pKd 3.1 to 4
Conditions: plain residues with an end cap or a label only (N-terminal biotin on a linker: ado-ado)

Binder	pKd
VNKSKLLTDV [KCNA1, Q09470]	3.72
TPPAAKKSRI [BAZ1A, Q9NRL2]	below the threshold

Target: TJP2_1, Q9UDY2
Sequence (Q9UDY2 24-128): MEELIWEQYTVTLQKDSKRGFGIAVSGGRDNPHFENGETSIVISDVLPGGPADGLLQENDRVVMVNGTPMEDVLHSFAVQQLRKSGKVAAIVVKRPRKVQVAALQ
Experiment: holdup assay
Set-up: key: below the threshold = too weak to quantify, mostly under pKd 3.1 to 4
Conditions: plain residues with an end cap or a label only (N-terminal biotin on a linker: ado-ado)

Binder	pKd
VNKSKLLTDV [KCNA1, Q09470]	below the threshold
TPPAAKKSRI [BAZ1A, Q9NRL2]	below the threshold

Target: T10, TJP3_3, O95049
T10 sequence (O95049 375-456, limits assumed, looked up): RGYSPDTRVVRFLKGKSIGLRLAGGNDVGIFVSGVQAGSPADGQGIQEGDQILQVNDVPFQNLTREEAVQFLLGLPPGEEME
Experiment: holdup assay
Set-up: key: below the threshold = too weak to quantify, mostly under pKd 3.1 to 4
Conditions: plain residues with an end cap or a label only (N-terminal biotin on a linker: ado-ado)

Binder	pKd
VNKSKLLTDV [KCNA1, Q09470]	below the threshold
TPPAAKKSRI [BAZ1A, Q9NRL2]	below the threshold

Reference: PMC9482650, “Quantitative fragmentomics allow affinity mapping of interactomes” (Nature Communications, 2022)
